How the values were obtained:
[1] = target: T1, Human FAP expressed on the cell surface (WI38, CHO-FAP1.9, U87MG cells) (human, UniProt Q12884 1-760); test: FACS on U87MG cells (FAP on the cell surface), His-tag detected with Penta-His AF647 conjugate, median fluorescence intensity
T1 construct: whole, on cells; Endogenous on WI38 and U87MG cells; from a human FAP cDNA (OriGene) in CHO-FAP1.9 cells; also called hFAP; FAP+ cells
T1 sequence (looked up): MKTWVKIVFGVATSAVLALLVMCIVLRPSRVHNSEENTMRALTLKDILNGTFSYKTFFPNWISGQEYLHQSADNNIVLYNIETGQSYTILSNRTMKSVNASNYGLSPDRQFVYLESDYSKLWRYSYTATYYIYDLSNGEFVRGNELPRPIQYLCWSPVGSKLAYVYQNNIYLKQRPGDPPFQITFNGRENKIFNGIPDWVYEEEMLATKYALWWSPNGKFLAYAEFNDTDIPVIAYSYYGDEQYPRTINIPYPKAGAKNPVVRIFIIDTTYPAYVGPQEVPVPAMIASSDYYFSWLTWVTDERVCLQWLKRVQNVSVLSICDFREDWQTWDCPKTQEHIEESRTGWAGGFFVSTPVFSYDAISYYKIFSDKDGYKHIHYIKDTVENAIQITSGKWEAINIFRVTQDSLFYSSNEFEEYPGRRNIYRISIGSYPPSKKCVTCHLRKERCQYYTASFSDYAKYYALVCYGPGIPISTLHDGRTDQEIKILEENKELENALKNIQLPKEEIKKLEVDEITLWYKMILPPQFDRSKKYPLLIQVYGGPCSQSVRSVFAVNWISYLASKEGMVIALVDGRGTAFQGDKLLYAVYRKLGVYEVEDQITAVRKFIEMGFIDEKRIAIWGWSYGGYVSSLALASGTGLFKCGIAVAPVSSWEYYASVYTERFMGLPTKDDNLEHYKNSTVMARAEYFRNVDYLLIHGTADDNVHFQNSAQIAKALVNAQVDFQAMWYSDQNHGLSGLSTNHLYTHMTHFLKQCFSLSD
Method: (§1) In order to determine whether the fusion of a biologically active molecule to a FAP-specific ankyrin repeat domain affects the ability of the molecule to specifically recognize and bind to FAP expressed on the surface of cells, the binding of selected ankyrin repeat fusion proteins to FAP-expressing cells was tested. U87 MG cells and WI38 cells are known to express FAP on the cell surface and they were chosen as representative cells for these experiments. FAP expression on the U87 MG and WI38 cells was confirmed by FACS analysis (data not shown).
(§2) Using multi-well plates, 40,000 cells (either U87MG or WI38) were added per well in 50 μl of PBS. 50 μl of appropriate dilutions (2× dilution steps) of ankyrin repeat fusion protein (DARPin® protein #40 or DARPin® protein #41) was then added to the cells and incubated for 30 minutes on ice. After the ankyrin repeat fusion protein-binding reaction, cells were washed twice with PBS. Direct immunofluorescent detection of the His-tagged ankyrin repeat fusion proteins using Penta-His AF647 conjugate (QIAgen) and determination of live cells using LIVE/DEAD™ Fixable Green Dead Cell Stain Kit (ThermoFisher) were then performed together in one step. […] Acquisition and FACS analysis, including the determination of median fluorescence intensity (MFI), were done within 5 days after staining using an AttuneNxT instrument. […]

[2] = target: T1, Human FAP expressed on the cell surface …; test: FACS on WI38 cells (FAP on the cell surface), His-tag detected with Penta-His AF647 conjugate, median fluorescence intensity
Method: as §1, §2

EC50 (read off the curve) [1]: ~2 nM
EC50 (read off the curve) [2]: ~2 nM
B1: DARPin® protein #41 (designed binder)
chain: MRGSHHHHHHGSDLGKKLLEAARAGQDDEVRELLKAGADVNAKDYFSHTPLHLAARNGHLKIVEVLLKAGADVNAKDFAGKTPLHLAANEGHLEIVEVLLKAGADVNAQDIFGKTPADIAADAGHEDIAEVLQKAAGSPTPTPTTPTPTPTTPTPTPTGSDLGEKLLVAALYGQDDEVRILLAAGADVNAKDQWGLTPLHKAALQGHLEIVEVLLKAGADVNAKDERGHTPLHWAARFGHLEIVEVLLKAGADVNAQDQKGYTPADLAALWGHEDIAEVLQKAA
notes: Fusion of a serum albumin-specific and a FAP-specific ankyrin repeat domain

From US20220242973A1 (Molecular Partners, published 2022)
